Measurements reported in publication PMC4996978 (2016).

Assays:
AtUBC8 [1] = biological target: T1, AtUBC8 (Arabidopsis thaliana, UniProt P35131 1-148); experiment: ITC
AtUBC8 [2] = biological target: T1, AtUBC8; experiment: ITC; remark: listed apart in the source

T1 sequence (P35131 whole entry): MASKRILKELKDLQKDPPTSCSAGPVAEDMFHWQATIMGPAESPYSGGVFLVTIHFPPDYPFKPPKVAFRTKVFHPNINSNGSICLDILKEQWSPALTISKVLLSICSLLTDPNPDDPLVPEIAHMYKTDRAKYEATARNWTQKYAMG

Ka (AtUBC8 [1]): 3.53e+06 M⁻¹
Kd (AtUBC8 [2]): 283 nM
B1: AtMUB3 (natural protein)
chain: MPEEESIDIKFRLYDGSDIGPFRYSAASTVDFLKQRVVSDWPKGKTVVPKGINEVKLISSGKILENNKTVGQCKTPFGDIAGGVIVMHVVVQPSLAKSKTEKKVDKAPKAVICTCTIL
